Patent publication US20020103152

Tested on: Sleeping Beauty transposase (SB) (synthetic construct (salmonid Tc1-like, reconstructed)?)
Experiment: cell_activity
Details: mouse liver, pRSV-βgeo without terminal repeats; 2-4% with repeats

“phAAT / pRSV-βgeo plasmids lacking terminal repeats” was tested, and the activity (% of hepatocytes) was < 0.01.
